From patent US20250034266A1 (ZAI LAB SHANGHAI, published 2025)
Positions count from the first letter of the chain named. Like-named read-outs stand apart in the source and are kept apart here. One block for each binder: values may come before it.

Assays:
human CCR8 [1] = biological target: T1, human CCR8 (human, UniProt P51685 1-355); assay: cell-based or functional assay
T1 sequence (P51685 whole entry): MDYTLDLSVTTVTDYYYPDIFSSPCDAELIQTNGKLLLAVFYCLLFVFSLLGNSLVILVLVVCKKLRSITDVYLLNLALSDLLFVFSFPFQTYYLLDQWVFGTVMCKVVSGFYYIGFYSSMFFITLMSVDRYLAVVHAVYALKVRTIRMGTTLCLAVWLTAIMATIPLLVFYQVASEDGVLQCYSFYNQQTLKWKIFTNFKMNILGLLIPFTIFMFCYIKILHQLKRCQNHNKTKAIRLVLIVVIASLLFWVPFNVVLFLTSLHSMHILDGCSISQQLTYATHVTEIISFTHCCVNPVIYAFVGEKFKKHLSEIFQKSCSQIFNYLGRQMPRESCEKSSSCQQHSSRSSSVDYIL

human CCR8 [2] = biological target: T1, human CCR8; assay: cell-based or functional assay; remark: listed apart in the source
human CCR8 [3] = biological target: T2, human CCR8 (human, UniProt P51685 1-355); assay: cell-based or functional assay; remark: listed apart in the source
T2 sequence (P51685 whole entry): as above

human CCR8 [4] = biological target: T2, human CCR8; assay: cell-based or functional assay; remark: listed apart in the source
human CCR8 [5] = biological target: T1, human CCR8; assay: FACS on CHO-K1-human CCR8 cells
cynomolgus CCR8 = biological target: T3, cynomolgus CCR8 (cynomolgus, UniProt G7NYJ2 1-355); assay: FACS on HEK293-cynomolgus CCR8 cells
T3 construct: whole, on cells

human CCR8 [6] = biological target: T1, human CCR8; assay: cell-based or functional assay; remark: listed apart in the source
human CCR8 [7] = biological target: T1, human CCR8; assay: FACS, competition with CCL1 on CHO-K1-human CCR8 cells
human CCR8 [8] = biological target: T1, human CCR8; assay: FACS on HuT78 cells (endogenous human CCR8)
Protocol: HuT78 cells expressing endogenous human CCR8 were used for determining binding affinities of selected affinity matured anti-CCR8 antibodies. Briefly, a total of […] cells for each well were seeded in 96-well plates and washed with FACS buffer (DPBS containing […]) for once. […] Cells were incubated with 50 μL of diluted antibodies at 4° C. for 1 hour. After primary antibody incubation, cells were washed for 3 times by FACS buffer. Then, cells were stained by Alexa Fbu647 labeled anti-human IgG secondary antibody (Jackson ImmunoResearch, #109606170) at 1:600 dilution in FACS buffer for 0.5 hour at 4° C. After 3 times washed, flow cytometry (Sartourius, iQue3) was performed to measure the binding affinities of antibodies. […]

human CCR8 [9] = biological target: T2, human CCR8; assay: cell-based or functional assay; remark: listed apart in the source
human CCR8 [10] = biological target: T2, human CCR8; assay: flow cytometry on TALL-1 cells (endogenous CCR8)
Protocol: Briefly, a total of 5×10⁴ cells for each well were seeded in 96-well plates and washed with FACS buffer (DPBS containing 1.5% FBS) for once. Antibodies were prepared with 3-fold serial dilution ranging from 100 nM to 0.00508 nM in FACS buffer. Cells were incubated with 50 μL of diluted antibodies at 4° C. for 40 minutes. After primary antibody incubation, cells were washed twice by FACS buffer. Then, cells were stained by Alexa Flu647-labeled anti-human IgG Fc secondary antibody (Jackson ImmunoResearch, #109606170) at 1:500 dilution in FACS buffer for 40 minutes at 4° C. After 2 times wash with FACS buffer, flow cytometry (BD FACS Celesta) was performed to measure the binding affinities of antibodies.

human CCR8 [11] = biological target: T2, human CCR8; assay: cell-based or functional assay; remark: listed apart in the source

T3 sequence (G7NYJ2 entry or part of it): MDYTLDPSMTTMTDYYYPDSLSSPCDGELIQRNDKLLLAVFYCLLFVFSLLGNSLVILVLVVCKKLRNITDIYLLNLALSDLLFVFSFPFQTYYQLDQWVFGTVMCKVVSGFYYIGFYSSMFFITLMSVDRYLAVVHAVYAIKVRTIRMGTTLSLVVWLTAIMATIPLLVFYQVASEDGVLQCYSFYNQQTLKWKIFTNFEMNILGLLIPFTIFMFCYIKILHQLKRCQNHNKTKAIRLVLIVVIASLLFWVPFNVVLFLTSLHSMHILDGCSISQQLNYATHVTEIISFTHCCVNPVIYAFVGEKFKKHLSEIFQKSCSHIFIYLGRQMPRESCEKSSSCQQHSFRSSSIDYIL

B1: Hu149-9 mIgG2a (antibody, V domains shown)
VH: EVQLVESGGGLVQPGGSLKLSCAASGFTFNTYAMNWVRQASGKGLEWVGRIRSKSNFYATAYAASVKGRFTISRDDSKNTAYLQMNSLKTEDTAVYYCTRGRDYGSSYAMDYWGQGTLVTVSS
VL: DIVMTQSPLSLPVTPGEPASISCRSSKSLLHSNANTYLYWFLQKPGQSPQLLIYRMSNLASGVPDRFSGSGSGTDFTLKISRVEAEDVGVYYCMQHLEYPLTFGGGTKVELK
IC50, blocking of CCL1 induced cell migration (human CCR8 [1]): 1.92 nM | IC50, inhibition of CCL1 induced β-Arrestin recruitment (human CCR8 [2]): 8.64 nM

B2: Hu149-12G1 (antibody, human IgG1)
heavy: not shown
VL: B1 VL
EC50, ADCC reporter, F variant CD16a/NFAT-Jurkat, target CHO-K1-human CCR8 cells (human CCR8 [3]): 0.0598 nM | EC50, ADCC reporter, F variant CD16a/NFAT-Jurkat, target HuT78 cells (human CCR8 [3]): 0.744 nM | EC50, ADCC reporter, V variant CD16a/NFAT-Jurkat, target CHO-K1-human CCR8 cells (human CCR8 [3]): 0.043 nM | EC50, ADCC reporter, V variant CD16a/NFAT-Jurkat, target HuT78 cells (human CCR8 [3]): 0.495 nM | Max (RLU), ADCC reporter, F variant CD16a/NFAT-Jurkat, target CHO-K1-human CCR8 cells (human CCR8 [3]): 4.96e+06 RLU | Max (RLU), ADCC reporter, F variant CD16a/NFAT-Jurkat, target HuT78 cells (human CCR8 [3]): 5.28e+06 RLU | Max (RLU), ADCC reporter, V variant CD16a/NFAT-Jurkat, target CHO-K1-human CCR8 cells (human CCR8 [3]): 2.28e+06 RLU | Max (RLU), ADCC reporter, V variant CD16a/NFAT-Jurkat, target HuT78 cells (human CCR8 [3]): 4.19e+06 RLU | EC50, ADCC with human PBMCs, target CHO-K1-human CCR8 cells (human CCR8 [4]): 0.0113 nM | Max specific lysis (%), ADCC with human PBMCs, target CHO-K1-human CCR8 cells (human CCR8 [4]): 36.4%

B4: Hu149-11G1 (antibody, human IgG1)
heavy: not shown
VL: B1 VL
notes: also called Hu149-11G1 (wild type variant)
EC50, ADCC with human PBMCs (LDH release), target TALL-1 cells (human CCR8 [9]): 0.0121 nM | EC50, ADCC reporter, F variant CD16a/NFAT-Jurkat, target CHO-K1-human CCR8 cells (human CCR8 [3]): 0.0586 nM | EC50, ADCC reporter, F variant CD16a/NFAT-Jurkat, target HuT78 cells (human CCR8 [3]): 0.402 nM | EC50, ADCC reporter, V variant CD16a/NFAT-Jurkat, target CHO-K1-human CCR8 cells (human CCR8 [3]): 0.0391 nM | EC50, ADCC reporter, V variant CD16a/NFAT-Jurkat, target HuT78 cells (human CCR8 [3]): 0.586 nM | Max (RLU), ADCC reporter, F variant CD16a/NFAT-Jurkat, target CHO-K1-human CCR8 cells (human CCR8 [3]): 4.71e+06 RLU | Max (RLU), ADCC reporter, F variant CD16a/NFAT-Jurkat, target HuT78 cells (human CCR8 [3]): 4.07e+06 RLU | Max (RLU), ADCC reporter, V variant CD16a/NFAT-Jurkat, target CHO-K1-human CCR8 cells (human CCR8 [3]): 2.03e+06 RLU | Max (RLU), ADCC reporter, V variant CD16a/NFAT-Jurkat, target HuT78 cells (human CCR8 [3]): 3.89e+06 RLU | EC50 (human CCR8 [10]): 0.315 nM | EC50, ADCC with human PBMCs, target CHO-K1-human CCR8 cells (human CCR8 [4]): 0.0139 nM | Max specific lysis (%), ADCC with human PBMCs, target CHO-K1-human CCR8 cells (human CCR8 [4]): 52.5% | EC50, ADCC reporter, 158F CD16a/NFAT-Jurkat, target TALL-1 cells (human CCR8 [11]): 0.12 nM | EC50, ADCC reporter, 158V CD16a/NFAT-Jurkat, target TALL-1 cells (human CCR8 [11]): 0.0658 nM

More lines, now with the values ahead:

EC50 (human CCR8 [5]): 0.0722 nM | Max MFI (human CCR8 [5]): 694000 MFI | EC50 (cynomolgus CCR8): 0.0826 nM | Max MFI (cynomolgus CCR8): 4.15e+06 MFI | IC50, inhibition of CCL1 induced β-Arrestin recruitment (human CCR8 [6]): 0.61 nM | Max Inhibition (%), CCL1 induced β-Arrestin recruitment (human CCR8 [6]): 88.8% | IC50 (human CCR8 [7]): 0.0614 nM | Max Inhibition (%) (human CCR8 [7]): 101% | Max MFI (human CCR8 [8]): 351000 MFI
B3: Hu149-18 (antibody, human IgG1, V domains shown)
VH: B1 VH
VL: B1 VL with E98R
notes: human IgG1

IC50, inhibition of CCL1 induced β-Arrestin recruitment (human CCR8 [2]): 860 nM
B5: Hu348-4 mIgG2a (antibody, V domains shown)
VH: EVQLVESGGGLVQPGGSLKLSCATSGFSFSNYRMHWLRQASGKGLEWVGVITVKSDNYGANYAASVKGRFTISRDDSKSSVYLQMNSLKTEDTAVYYCSSLGRVAYWGQGTLVTVSS
VL: DIQMTQSPSSVSASVGDRVTITCKASQNVDTNVVWYQQKPGQSPKALIYSASSRYSGVPSRFSGSGSGTDFTLTISSLQPEDFATYYCQQHNSFPLTFGQGTKLEIK
